Measurements: IntAct's records for PubMed 12084833

B1: Regulatory protein NPR1 (Arabidopsis thaliana (Mouse-ear cress)), P93002 (parent)
chain: MDTTIDGFADSYEISSTSFVATDNTDSSIVYLAAEQVLTGPDVSALQLLSNSFESVFDSPDDFYSDAKLVLSDGREVSFHRCVLSARSSFFKSALAAAKKEKDSNNTAAVKLELKEIAKDYEVGFDSVVTVLAYVYSSRVRPPPKGVSECADENCCHVACRPAVDFMLEVLYLAFIFKIPELITLYQRHLLDVVDKVVIEDTLVILKLANICGKACMKLLDRCKEIIVKSNVDMVSLEKSLPEELVKEIIDRRKELGLEVPKVKKHVSNVHKALDSDDIELVKLLLKEDHTNLDDACALHFAVAYCNVKTATDLLKLDLADVNHRNPRGYTVLHVAAMRKEPQLILSLLEKGASASEATLEGRTALMIAKQATMAVECNNIPEQCKHSLKGRLCVEILEQEDKREQIPRDVPPSFAVAADELKMTLLDLENRVALAQRLFPTEAQAAMEIAEMKGTCEFIVTSLEPDRLTGTKRTSPGVKIAPFRILEEHQSRLKALSKTVELGKRFFPRCSAVLDQIMNCEDLTQLACGEDDTAEKRLQKKQRYMEIQETLKKAFSEDNLELGNSSLTDSTSSTSKSTGGKRSNRKLSHRRR
partner: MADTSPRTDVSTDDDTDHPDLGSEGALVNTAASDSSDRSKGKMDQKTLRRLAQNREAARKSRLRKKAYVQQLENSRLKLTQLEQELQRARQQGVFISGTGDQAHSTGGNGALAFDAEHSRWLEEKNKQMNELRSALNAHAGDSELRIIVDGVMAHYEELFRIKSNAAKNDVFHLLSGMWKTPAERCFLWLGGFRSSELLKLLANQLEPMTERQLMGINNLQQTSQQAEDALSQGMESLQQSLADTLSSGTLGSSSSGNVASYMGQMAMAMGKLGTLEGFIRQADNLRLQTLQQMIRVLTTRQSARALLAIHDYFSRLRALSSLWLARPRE

Variants of: B1
Conditions: with tga2_arath TGA2, P43273

**Q.** Which “effect of a mutation on the interaction” value does the source give for MDTTIDGFADSYEISSTSFVATDNTDSSIVYLAAEQVLTGPDVSALQLLSNSFESVFDSPDDFYSDAKLVLSDGREVSFHRCVLSARSSFFKSALAAAKKEKDSNNTAAVKLELKEIAKDYEVGFDSVVTVLAYVYSSRVRPPPKGVSEYADENCCHVACRPAVDFMLEVLYLAFIFKIPELITLYQRHLLDVVDKVVIEDTLVILKLANICGKACMKLLDRCKEIIVKSNVDMVSLEKSLPEELVKEIIDRRKELGLEVPKVKKHVSNVHKALDSDDIELVKLLLKEDHTNLDDACALHFAVAYCNVKTATDLLKLDLADVNHRNPRGYTVLHVAAMRKEPQLILSLLEKGASASEATLEGRTALMIAKQATMAVECNNIPEQCKHSLKGRLCVEILEQEDKREQIPRDVPPSFAVAADELKMTLLDLENRVALAQRLFPTEAQAAMEIAEMKGTCEFIVTSLEPDRLTGTKRTSPGVKIAPFRILEEHQSRLKALSKTVELGKRFFPRCSAVLDQIMNCEDLTQLACGEDDTAEKRLQKKQRYMEIQETLKKAFSEDNLELGNSSLTDSTSSTSKSTGGKRSNRKLSHRRR [C150Y] here?
**A.** The value was “disrupting interaction”.
